Assay results as given in IntAct's records for PubMed 19357306.

B1: Aurora kinase A (Homo sapiens), O14965 (parent)
chain: MDRSKENCISGPVKATAPVGGPKRVLVTQQFPCQNPLPVNSGQAQRVLCPSNSSQRIPLQAQKLVSSHKPVQNQKQKQLQATSVPHPVSRPLNNTQKSKQPLPSAPENNPEEELASKQKNEESKKRQWALEDFEIGRPLGKGKFGNVYLAREKQSKFILALKVLFKAQLEKAGVEHQLRREVEIQSHLRHPNILRLYGYFHDATRVYLILEYAPLGTVYRELQKLSKFDEQRTATYITELANALSYCHSKRVIHRDIKPENLLLGSAGELKIADFGWSVHAPSSRRTTLCGTLDYLPPEMIEGRMHDEKVDLWSLGVLCYEFLVGKPPFEANTYQETYKRISRVEFTFPDFVTEGARDLISRLLKHNPSQRPMLREVLEHPWITANSSKPSNCQNKESASKQS

Variants of: B1
Settings: with ince_human INCENP

effect of a mutation on the interaction	Variant
disrupting interaction strength	MDRSKENCISGPVKATAPVGGPKRVLVTQQFPCQNPLPVNSGQAQRVLCPSNSSQRIPLQAQKLVSSHKPVQNQKQKQLQATSVPHPVSRPLNNTQKSKQPLPSAPENNPEEELASKQKNEESKKRQWALEDFEIGRPLGKGKFGNVYLAREKQSKFILALKVLFKAQLEKAGVEHQLRREVEIQSHLRHPNILRLYLYFHDATRVYLILEYAPLGTVYRELQKLSKFDEQRTATYITELANALSYCHSKRVIHRDIKPENLLLGSAGELKIADFGWSVHAPSSRRTTLCGTLDYLPPEMIEGRMHDEKVDLWSLGVLCYEFLVGKPPFEANTYQETYKRISRVEFTFPDFVTEGARDLISRLLKHNPSQRPMLREVLEHPWITANSSKPSNCQNKESASKQS [G198L]
disrupting interaction strength	MDRSKENCISGPVKATAPVGGPKRVLVTQQFPCQNPLPVNSGQAQRVLCPSNSSQRIPLQAQKLVSSHKPVQNQKQKQLQATSVPHPVSRPLNNTQKSKQPLPSAPENNPEEELASKQKNEESKKRQWALEDFEIGRPLGKGKFGNVYLAREKQSKFILALKVLFKAQLEKAGVEHQLRREVEIQSHLRHPNILRLYVYFHDATRVYLILEYAPLGTVYRELQKLSKFDEQRTATYITELANALSYCHSKRVIHRDIKPENLLLGSAGELKIADFGWSVHAPSSRRTTLCGTLDYLPPEMIEGRMHDEKVDLWSLGVLCYEFLVGKPPFEANTYQETYKRISRVEFTFPDFVTEGARDLISRLLKHNPSQRPMLREVLEHPWITANSSKPSNCQNKESASKQS [G198V]
disrupting interaction strength	MDRSKENCISGPVKATAPVGGPKRVLVTQQFPCQNPLPVNSGQAQRVLCPSNSSQRIPLQAQKLVSSHKPVQNQKQKQLQATSVPHPVSRPLNNTQKSKQPLPSAPENNPEEELASKQKNEESKKRQWALEDFEIGRPLGKGKFGNVYLAREKQSKFILALKVLFKAQLEKAGVEHQLRREVEIQSHLRHPNILRLYAYFHDATRVYLILEYAPLGTVYRELQKLSKFDEQRTATYITELANALSYCHSKRVIHRDIKPENLLLGSAGELKIADFGWSVHAPSSRRTTLCGTLDYLPPEMIEGRMHDEKVDLWSLGVLCYEFLVGKPPFEANTYQETYKRISRVEFTFPDFVTEGARDLISRLLKHNPSQRPMLREVLEHPWITANSSKPSNCQNKESASKQS [G198A]

Variants of: B1
Settings: with tpx2_human TPX2, Q9ULW0
Chain of tpx2_human TPX2, Q9ULW0 (Q9ULW0 whole entry): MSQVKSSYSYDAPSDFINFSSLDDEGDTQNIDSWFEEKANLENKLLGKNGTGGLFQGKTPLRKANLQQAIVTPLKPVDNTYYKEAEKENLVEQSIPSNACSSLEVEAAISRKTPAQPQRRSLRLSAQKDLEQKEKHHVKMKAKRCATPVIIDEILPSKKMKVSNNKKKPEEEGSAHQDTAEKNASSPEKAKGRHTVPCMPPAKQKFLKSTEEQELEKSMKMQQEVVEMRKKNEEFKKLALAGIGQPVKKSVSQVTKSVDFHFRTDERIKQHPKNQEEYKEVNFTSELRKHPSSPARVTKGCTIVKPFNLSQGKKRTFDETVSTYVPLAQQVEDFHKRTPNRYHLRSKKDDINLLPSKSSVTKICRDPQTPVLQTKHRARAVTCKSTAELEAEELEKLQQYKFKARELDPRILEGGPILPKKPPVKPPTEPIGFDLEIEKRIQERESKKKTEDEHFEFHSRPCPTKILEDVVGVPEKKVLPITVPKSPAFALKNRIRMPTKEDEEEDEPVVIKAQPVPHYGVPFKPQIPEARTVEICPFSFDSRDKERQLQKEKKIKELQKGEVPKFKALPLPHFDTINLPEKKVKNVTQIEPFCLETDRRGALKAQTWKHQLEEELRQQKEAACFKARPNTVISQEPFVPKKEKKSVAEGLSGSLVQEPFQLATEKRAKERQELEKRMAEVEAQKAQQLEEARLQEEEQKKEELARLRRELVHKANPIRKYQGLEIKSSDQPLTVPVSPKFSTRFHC

effect of a mutation on the interaction	Variant
decreasing interaction	MDRSKENCISGPVKATAPVGGPKRVLVTQQFPCQNPLPVNSGQAQRVLCPSNSSQRIPLQAQKLVSSHKPVQNQKQKQLQATSVPHPVSRPLNNTQKSKQPLPSAPENNPEEELASKQKNEESKKRQWALEDFEIGRPLGKGKFGNVYLAREKQSKFILALKVLFKAQLEKAGVEHQLRREVEIQSHLRHPNILRLYNYFHDATRVYLILEYAPLGTVYRELQKLSKFDEQRTATYITELANALSYCHSKRVIHRDIKPENLLLGSAGELKIADFGWSVHAPSSRRTTLCGTLDYLPPEMIEGRMHDEKVDLWSLGVLCYEFLVGKPPFEANTYQETYKRISRVEFTFPDFVTEGARDLISRLLKHNPSQRPMLREVLEHPWITANSSKPSNCQNKESASKQS [G198N]
